Assay results: PMC7425812 (Nature cell biology, 2020)
Like-named read-outs stand apart in the source and are kept apart here.

What was measured:
[1] = target: the molecule itself; assay: SDS-resistant dimer on SDS-PAGE immunoblot
[2] = target: the molecule itself; assay: SDS-resistant dimer on SDS-PAGE immunoblot; remark: listed apart in the source

B1: AKAP95 (endogenous, HeLa cell nuclear extract) (natural protein)
chain: not shown
- stoichiometry N [1]: 2

B2: FLAG-HA-tagged AKAP95 (FH-AKAP95), wild type (natural protein)
chain: not shown
- stoichiometry N [2]: 2
